Reference: FireProtDB (doi:10.1002/pro.5560050915)

Details: Bos taurus; pH 8.5; Thermal; DSC; ascorbate 1 mM; whole UniProt chain shown

B1: Adrenodoxin, mitochondrial wild type, P00257 (protein)
chain: MAARLLRVASAALGDTAGRWRLLARPRAGAGGLRGSRGPGLGGGAVATRTLSVSGRAQSSSEDKITVHFINRDGETLTTKGKIGDSLLDVVVQNNLDIDGFGACEGTLACSTCHLIFEQHIFEKLEAITDEENDMLDLAYGLTDRSRLGCQICLTKAMDNMTVRVPDAVSDARESIDMGMNSSKIE
- Tm: 51.4 °C
- heat capacity change of unfolding: 1.79 kcal/mol/K
- unfolding enthalpy (calorimetric): 84.8 kcal/mol
